System: Meis1

With MYC-CUL4A the “steady-state levels (immunoblot)” value was “the HOX co-factor Meis1 was not subjected to CUL4A-mediated degradation”.

Source: patent US20150368613
